Article PMC6114919
Blank lines part the entries; values can stand above or below the substance they belong to.

Assays:
R182W p55 (human) = assay: EMSA; details: EMSA in triplicate as previously described (ref 22); buffer, salt, pH and temperature not given in the material
[1] = tested on: WT p55 (Pol gamma accessory subunit) (human); assay: EMSA; details: EMSA in triplicate as previously described (ref 22); buffer, salt, pH and temperature not given in the material
[2] = biological target: Exonuclease-deficient (Exo-) p140 catalytic subunit of DNA polymerase gamma (POLG) (human) (UniProt P54098); assay: DNA polymerase activity titration (formation of active holoenzyme); holoenzymes preassembled on ice in EDB (50 mM Tris-HCl pH 7.5, 10% glycerol, 1 mM EDTA, 1 mM 2-ME, 100 mM KCl, 0.005% NP-40) with constant 2.5 nM p140 and 0-25 nM p55; activity on poly(rA)•oligo(dT)12-18 at 220 mM NaCl, 37°C, 9 min; apparent Kd from activity against the concentration of p55 dimer
p55 (Homo sapiens) = p55 (Homo sapiens) (UniProt Q9UHN1); details: cited from earlier work

Chain of p55 (Q9UHN1 2-485): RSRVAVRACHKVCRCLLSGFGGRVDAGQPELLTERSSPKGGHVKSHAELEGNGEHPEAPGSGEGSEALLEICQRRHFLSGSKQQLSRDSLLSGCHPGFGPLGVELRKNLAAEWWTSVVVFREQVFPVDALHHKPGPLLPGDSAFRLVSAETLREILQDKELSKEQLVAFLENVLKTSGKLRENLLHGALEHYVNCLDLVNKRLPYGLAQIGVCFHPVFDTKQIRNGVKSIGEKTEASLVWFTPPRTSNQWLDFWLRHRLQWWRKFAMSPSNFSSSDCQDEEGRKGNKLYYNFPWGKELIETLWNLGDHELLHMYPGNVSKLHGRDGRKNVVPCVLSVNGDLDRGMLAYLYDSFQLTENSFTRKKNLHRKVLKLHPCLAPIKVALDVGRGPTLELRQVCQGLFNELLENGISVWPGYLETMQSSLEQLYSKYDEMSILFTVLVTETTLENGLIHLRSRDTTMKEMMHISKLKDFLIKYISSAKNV

Substance: 47-nucleotide double-stranded DNA oligomer
- Kd (R182W p55 (human)): 84.2 nM
- Kd [1]: 89.6 nM

- Kd [2]: 0.11 nM
Substance: R182W p55 accessory subunit of DNA polymerase gamma (POLG2 Chr17: 62492543G>A) (natural protein)

- Kd [2]: 0.35 nM
Substance: Wild-type p55 accessory subunit of DNA polymerase gamma (POLG2) (natural protein)

Substance: p55 (from UniProt Q9UHN1)
- Kd (p55 (Homo sapiens)): < 0.1 nM
